Measurements from patent US20210230248A1, “Multivalent pharmacophores for high avidity and overexpressed-target specific binding and uses thereof” (priority 2020, published 2021).
“Also recorded” adds a separate entry of the source. Where no end group is shown, it is not given here.

Legend:
[1] = target: T1, PD-L1 overexpressing SU-DHL-1 cells (Homo sapiens, UniProt Q9NZQ7); assay: Competitive binding assay on PD-L1 overexpressing SU-DHL-1 cells; details: antibody at ~33.3 nM, assuming linear relationship
T1 construct: endogenous in cells; host or cells: SU-DHL-1 cells
Protocol: PC3, a low PD-L1 expressing cell is used as a control.
PE-conjugated mouse anti-human PD-L1 antibody (Clone MIN1, eBioscience) at the final concentration of 0.5 μg/100 μL (˜33.3 nM) was mixed with 4-arm PEG-2K PD-1ecto or 6-arm PEG-3.4K PD-1ecto titrated from 50 nM to 1 nM in Stain Buffer. SU-DHL-1 cells (0.5×10^6 cells) were resuspended in each titration of reagent in a final volume of 100 μL per well. After incubation for 3 h on ice with occasional mixing, the cells were washed 3 times. The amount of anti-PD-L1 antibody bound to the cells was quantified by the fluorescence intensity of PE using flow cytometry.

[2] = target: T2, uPAR overexpressing Hela cells (Homo sapiens, UniProt Q03405); assay: Competitive binding assay on uPAR overexpressing Hela cells; details: ratio of IC50 values
T2 construct: endogenous in cells; host or cells: Hela cells
Description: This assay is to measure the binding avidity of multivalent PEG-GFD pharmacophores to uPAR overexpressing Hela cells in comparison to uPA. Hela cells express uPAR but not uPA (Rabbani et al., Neoplasia, 2010, 12(10); 778-88), and therefore competition from endogenous uPA can be excluded.
Mouse anti-uPAR (Clone VIM5) is an uPAR blocking antibody (Sillaber et al., J Biol Chem, 1997, 272(12):7824-32). The potency of multivalent PEG-GFD pharmacophores and native uPA to compete against the antibody in binding to the overexpressed uPAR on the surface of Hela cells is measured and compared in this assay.
Hela cells were detached from culture flasks by trypsin/EDTA, resuspended in complete culture medium in a 50 mL conical tube, and incubated for 1 h at 37° C. in 5% CO2 incubator to allow receptor recovery. PE-conjugated anti-uPAR antibody (Clone VIM5; Invitrogen) at the final concentration of 0.5 μg/100 μL (33.33 nM) was mixed with titrated concentrations of 4-arm PEG-GFD and 6-arm PEG-GFD, and recombinant human uPA (Biolegend) in Stain Buffer. The mixture was added into Hela cells (500,000 cells in 100 μL; final density). […] The fluorescent intensity of PE on Hela cells was quantified by flow cytometry and plotted against the titration of 4-arm PEG-GFD, 6-arm PEG-GFD and uPA. The binding avidity of multivalent PEG-GFD pharmacophores relative to native uPA can be calculated.

[3] = target: T3, HT-1080 cells in which the overexpressed uPAR is occupied by endogenous uPA (Homo sapiens, UniProt Q03405); assay: Displacement of endogenous uPA from uPAR on HT-1080 cells; format: binding; details: various concentrations; 0.5-4 h on ice
T3 construct: endogenous in cells; host or cells: HT-1080 cells
Protocol: Human fibrosarcoma cell HT-1080 overexpresses both uPA and uPAR and the uPAR is occupied by the endogenous uPA. […] As a control, the competitive potency of uPAR blocking antibody (Clone VIM5) was also tested.
HT-1080 cells were plated in 96-well plate at 30,000 cells/well in 100 μL DMEM medium supplemented with 10% FBS. After overnight incubation, the culture medium was removed and 4-arm PEG-GFD, 6-arm PEG-GFD and mouse anti-uPAR antibody (Clone VIM5, Invitrogen) with various concentrations in Stain Buffer were added into each well. The cells were incubated on ice for 0.5, 1, 2, 3 and 4 h. Then, the cells were washed twice with cold PBS and fixed in 4% paraformaldehyde for 30 min. The plate was blocked with 3% MSD Blocking Buffer for 1 h and the cells were stained with mouse anti-human uPA catalytic domain antibody (Clone 204212; R&D Systems) to quantify the amount of endogenous uPA still associated with the cells. After 2 h incubation with the antibody, HRP-conjugated anti-mouse antibody was added for another hour of incubation. TMB was then added and followed by addition of stop solution. The plate was read at 450 nm absorbance to quantify the endogenous uPA.

[4] = test system: H1299, SW480, HT-1080 and PC3 cells; assay: Cell adhesion assay on vitronectin coated plate; format: cell-based, human; details: four uPAR overexpressing cell lines; 3 h; various concentrations
Protocol: For adhesion of cancer cells to vitronectin, 96-well plate was coated overnight with vitronectin (Thermo Fisher Scientific) at 5 μg/mL in PBS at 4° C., 50 μL/well. The wells without coating were used as negative controls. The plate was then blocked with 3% MSD Blocking Buffer for 2 h at room temperature. Four uPAR overexpressing human cancer lines were used for the assay: non-small cell lung cancer line H1299, colorectal cancer line SW480, fibrosarcoma line HT-1080 and prostate cancer line PC3. The cells were detached from culture flasks by trypsin/EDTA, resuspended in complete culture medium in a 50 mL conical tube, and incubated for 1 h at 37° C. in 5% CO2 incubator to allow receptor recovery. Cells were then washed with serum-free medium and resuspended in DMEM medium with 0.5% BSA. 50,000 cells in 100 μL were plated into each well with various concentrations of 4-arm and 6-arm PEG-GFD pharmacophores, and uPAR blocking antibody, VIM5. The plates were incubated at 37° C. in 5% CO2 incubator for 3 h, and washed 4 times with PBS with 0.5% BSA. The number of adherent cells in each well was quantified by CellTiter-Glo (Promega).

H1299 and HT-1080 cells [5] = assay: Chemotaxis assay (fibronectin coated transwell); format: cell-based, human; details: 10% FBS chemoattractant, 16 h
Protocol: Chemotaxis assay was performed using BD BioCoat 24-well transwell with 8 μm pore size filter which is coated with fibronectin (Corning). For the study, H1299 and HT-1080 cells were detached from culture flasks with trypsin/EDTA, and then the trypsin was deactivated by adding the complete medium. The cells were washed with serum-free medium twice and resuspended at the final density of 50,000 cells in 500 μL DMEM medium supplemented with 0.5% BSA. The cells were treated with multivalent pharmacophores and uPAR blocking antibody for 1 h at 37° C. in 5% CO2 incubator. 650 μL of DMEM with 10% FBS was used as chemoattractant and added into the lower chamber. Serum-free DMEM medium was used as a negative control, and no drug treatment well was considered as 100% migration. After placing the upper chamber into the lower chamber, 500 μL cell suspensions were added to the upper chamber. 4-arm PEG-GFD, 6-arm PEG-GFD and uPAR blocking antibody, VIM5, with various concentrations were added in both upper and lower chambers. The transwell was incubated at 37° C. in 5% CO2 incubator for 16 h. […] The number of cells migrated past the filter was quantify by reading the solution in plate reader after transferring into a white 96-well plates.

H1299 and HT-1080 cells [6] = assay: Matrigel invasion assay; format: cell-based, human; details: 10 nM, 24 h
Protocol: The migration of cells through Matrigel indicates the ability of the cells to digest the extracellular matrix during the process of migration. The Matrigel invasion assay is similar to the chemotaxis assay above except that the 8 μm pore size filter is coated with Matrigel. BD BioCoat Matrigel Invasion Chamber (Corning) was used for the assay with H1299 and HT-1080 cells. 4-arm PEG-GFD, 6-arm PEG-GFD and the blocking antibody VIM5 were used at the concentration of 10 nM. After 24 h treatment, the Matrigel along with the cells remaining on the upper surface of filter in the upper chamber was scraped off with a cotton swab. The migrated cells were measured with CellTiter-Glo as described above.

Human recombinant PD-L2 = target: T4, Human recombinant PD-L2 (Homo sapiens, UniProt Q9BQ51); assay: Binding to PD-L2 coated MSD plate; details: test items at 5 nM; plate coated at 40 nM; FIG. 4B
T4 construct: purchased Abcam
T4 sequence (Q9BQ51 20-273): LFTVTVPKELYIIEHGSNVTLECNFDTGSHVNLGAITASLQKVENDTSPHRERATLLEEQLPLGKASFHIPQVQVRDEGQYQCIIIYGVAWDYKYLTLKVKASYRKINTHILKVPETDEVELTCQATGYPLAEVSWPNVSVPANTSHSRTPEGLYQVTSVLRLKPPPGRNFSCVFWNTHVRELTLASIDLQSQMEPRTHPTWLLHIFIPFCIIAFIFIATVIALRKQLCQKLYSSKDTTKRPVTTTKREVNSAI
Protocol: Human recombinant PD-L1, PD-L2 and CD80 (Abcam) at the concentration of 40 nM were coated onto wells of 96-well MSD plate (small spot, 40 μL/well) overnight at 4° C., and then blocked with 3% MSD Blocking Buffer for 1 h. […] The plates were shaken for another 1 h at room temperature. After washing, SULFO-TAG anti-mouse IgG antibody was added into the plates. The plates were further incubated for 1 h and then washed and read after adding 1×MSD Read Buffer. SULFO-TAG anti-human IgG antibody was added into the plate of PD-L1 Fc chimera proteins. The wells without coating were used as background binding.

CD47 = CD47 (Homo sapiens, UniProt Q08722); details: Ho et al. 2015; read-out: Kd CD47/SIRPα; cited from earlier work
CD47, sequence (Q08722 19-323): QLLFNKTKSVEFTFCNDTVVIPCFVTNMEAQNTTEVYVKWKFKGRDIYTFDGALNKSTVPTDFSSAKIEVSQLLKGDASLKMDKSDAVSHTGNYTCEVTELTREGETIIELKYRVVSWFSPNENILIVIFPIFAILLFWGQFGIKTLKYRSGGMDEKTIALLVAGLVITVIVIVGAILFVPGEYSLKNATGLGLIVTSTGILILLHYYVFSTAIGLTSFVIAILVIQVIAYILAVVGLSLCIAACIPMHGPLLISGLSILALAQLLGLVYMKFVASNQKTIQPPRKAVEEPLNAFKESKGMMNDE

T1 sequence (Q9NZQ7 19-290): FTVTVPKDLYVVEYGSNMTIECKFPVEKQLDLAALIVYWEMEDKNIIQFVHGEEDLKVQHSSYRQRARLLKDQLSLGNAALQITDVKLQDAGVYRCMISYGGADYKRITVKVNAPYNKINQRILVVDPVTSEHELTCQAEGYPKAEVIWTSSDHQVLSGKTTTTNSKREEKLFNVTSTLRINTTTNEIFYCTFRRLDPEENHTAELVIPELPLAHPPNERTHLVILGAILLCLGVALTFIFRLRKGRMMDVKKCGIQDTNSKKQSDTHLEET
T3 sequence (Q03405 23-305 limits assumed): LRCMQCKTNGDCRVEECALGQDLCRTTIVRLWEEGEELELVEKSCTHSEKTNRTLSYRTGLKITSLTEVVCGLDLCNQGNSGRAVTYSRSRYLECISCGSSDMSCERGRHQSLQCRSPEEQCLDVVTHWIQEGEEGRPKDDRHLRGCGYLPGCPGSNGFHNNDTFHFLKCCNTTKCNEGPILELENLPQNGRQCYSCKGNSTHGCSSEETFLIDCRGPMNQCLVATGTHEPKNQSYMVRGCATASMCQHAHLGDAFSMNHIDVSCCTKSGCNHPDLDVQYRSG
T2 sequence (Q03405 23-335): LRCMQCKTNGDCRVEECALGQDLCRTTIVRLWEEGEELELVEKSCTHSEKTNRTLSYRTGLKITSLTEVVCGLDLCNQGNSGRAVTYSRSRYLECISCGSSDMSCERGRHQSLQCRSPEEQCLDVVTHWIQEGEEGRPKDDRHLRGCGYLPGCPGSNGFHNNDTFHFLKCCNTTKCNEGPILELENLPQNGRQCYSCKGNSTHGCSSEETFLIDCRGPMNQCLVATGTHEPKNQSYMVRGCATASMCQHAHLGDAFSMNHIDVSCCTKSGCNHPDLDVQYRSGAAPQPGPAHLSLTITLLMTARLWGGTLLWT

Substance: 4-arm PEG-2K PD-1ecto: PD-1 ectodomain (aa. 21-169) site-specifically C-terminally conjugated to 4-arm PEG-2K, tetravalent pharmacophore
- fold more potent than the PD-L1 blocking antibody [1]: about 2.6 fold

Substance: 6-arm PEG-GFD: growth factor-like domain of uPA conjugated to 6-arm PEG-3.4K (VPSNCDCLNGGTCVSNKYFSNIHWCNCPKKFGGQHCEIDKSKT; not fully specified (C-terminus); ends and bridges not checked; also: conjugated to 6-arm PEG-3.4K (site not given here))
- fold increase in binding activity relative to native uPA [2]: ~85 fold
- displacement of bound uPA from uPAR [3]: generally more potent than 4-arm PEG-GFD
- inhibition of adhesion to vitronectin [4]: inhibited the adhesion of all four cell lines to vitronectin dose-dependently; also recorded: more potent than 4-arm PEG-GFD
- migration of cells to the lower chamber (chemotaxis) (H1299 and HT-1080 cells [5]): significantly reduced migration
- Matrigel invasion (H1299 and HT-1080 cells [6]): significantly inhibited

Substance: PD-1 Fc chimera: recombinant human PD-1 Fc chimera protein (R&D Systems) [reference compound]
- binding to PD-L2 coated plate (Human recombinant PD-L2): bound

Substance: SIRPα: signal-regulatory protein alpha, binds CD47 through its N-terminal IgV-like domain
- Kd (CD47): 300 to 500 nM
